# T1: MFSD2ACO expressed in HEK-293T.17 cells (LPC-analog transport assay) (human, UniProt Q8NA29 1-543)
# T1 chain: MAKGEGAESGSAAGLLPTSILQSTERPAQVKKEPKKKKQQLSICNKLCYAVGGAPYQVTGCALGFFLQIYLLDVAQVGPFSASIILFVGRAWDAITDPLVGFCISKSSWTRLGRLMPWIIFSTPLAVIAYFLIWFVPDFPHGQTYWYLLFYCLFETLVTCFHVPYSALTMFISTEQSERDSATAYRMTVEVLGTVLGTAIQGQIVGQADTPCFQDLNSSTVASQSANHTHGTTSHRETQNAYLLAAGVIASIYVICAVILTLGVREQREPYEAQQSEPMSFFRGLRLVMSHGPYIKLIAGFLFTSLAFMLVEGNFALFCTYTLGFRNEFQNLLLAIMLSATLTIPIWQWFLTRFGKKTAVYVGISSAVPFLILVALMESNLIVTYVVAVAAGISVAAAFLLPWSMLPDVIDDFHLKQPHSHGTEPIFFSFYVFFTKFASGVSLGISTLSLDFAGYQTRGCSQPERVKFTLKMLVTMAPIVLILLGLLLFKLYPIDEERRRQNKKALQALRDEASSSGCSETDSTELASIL
# T2: GFP-MFSD2ACO (N-terminal FLAG-tag/GFP fusion of MFSD2ACO, detergent-solubilised lysate) (human, UniProt Q8NA29 1-543)
# T2 construct: The methods say only 'MFSD2A'; also called MFSD2A-GFP; not shown: N-terminal FLAG-tag, GFP and PreScission protease cleavage site
# T2 chain: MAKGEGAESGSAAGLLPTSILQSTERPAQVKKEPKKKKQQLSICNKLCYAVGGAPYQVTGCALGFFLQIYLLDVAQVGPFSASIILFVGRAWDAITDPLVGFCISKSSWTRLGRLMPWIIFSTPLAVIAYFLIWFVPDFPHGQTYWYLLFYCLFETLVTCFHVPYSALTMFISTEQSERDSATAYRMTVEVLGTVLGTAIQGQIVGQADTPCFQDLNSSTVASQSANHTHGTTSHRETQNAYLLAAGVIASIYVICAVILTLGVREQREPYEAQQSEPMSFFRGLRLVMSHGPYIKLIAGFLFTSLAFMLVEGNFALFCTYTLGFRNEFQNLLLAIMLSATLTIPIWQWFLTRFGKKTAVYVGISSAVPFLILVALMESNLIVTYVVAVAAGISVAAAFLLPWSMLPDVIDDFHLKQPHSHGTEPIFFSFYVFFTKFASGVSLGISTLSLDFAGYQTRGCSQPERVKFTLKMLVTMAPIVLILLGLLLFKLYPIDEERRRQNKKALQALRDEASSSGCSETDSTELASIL
# T3: MFSD2ACO (thermostable consensus MFSD2A mutant), purified in detergent (human, UniProt Q8NA29 1-543)
# T3 construct: Full-length transporter expressed in HEK-293F with an N-terminal FLAG-tag, GFP and PreScission site; also called MFSD2A consensus; MFSD2A consensus design
# T3 chain: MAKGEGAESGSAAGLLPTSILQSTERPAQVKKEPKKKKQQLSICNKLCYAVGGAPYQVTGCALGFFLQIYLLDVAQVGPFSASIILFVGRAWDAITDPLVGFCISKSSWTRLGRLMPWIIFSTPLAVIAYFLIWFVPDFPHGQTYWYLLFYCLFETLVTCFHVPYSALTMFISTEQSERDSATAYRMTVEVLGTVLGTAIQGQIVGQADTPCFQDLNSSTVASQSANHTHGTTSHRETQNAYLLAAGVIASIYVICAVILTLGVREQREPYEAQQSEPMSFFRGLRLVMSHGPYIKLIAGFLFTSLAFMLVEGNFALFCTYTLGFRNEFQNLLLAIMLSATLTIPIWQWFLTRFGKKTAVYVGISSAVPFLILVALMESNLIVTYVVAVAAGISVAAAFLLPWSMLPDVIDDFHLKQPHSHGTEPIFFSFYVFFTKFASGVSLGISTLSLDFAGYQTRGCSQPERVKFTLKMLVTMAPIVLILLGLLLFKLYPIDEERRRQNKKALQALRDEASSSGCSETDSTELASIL
# Tests used:
# [1] = biological target: T1, MFSD2ACO expressed in HEK-293T.17 cells …; experiment: cell-based or functional assay
# [2] = biological target: T2, GFP-MFSD2ACO (N-terminal FLAG-tag/GFP …); experiment: titration of SYNC2-mCherry lysate onto GFP-MFSD2A captured on anti-FLAG resin in DDM/CHS at 4 °C; eluted mCherry/GFP fluorescence fitted to a quadratic binding equation
# Procedure: SYNC2 binding to MFSD2A was assayed in clear lysates of detergent-solubilized HEK-293F cells expressing mCherry (C-terminal) and GFP (N-terminal) fusion constructs of SYNC2 and MFSD2A, respectively, that enable protein quantification. Clear cells lysates were obtained by 1-hour solubilization in lysis buffer containing 50 mM HEPES pH 7.4, 200 mM NaCl, 5% v/v glycerol, 1 mM EDTA, protease-inhibitor cocktail, 1% DDM, and 0.2% CHS, followed by centrifugation (3,800g, 20 min). SYNC2-mCherry and GFP-MFSD2A protein concentrations in lysates were determined using purified standards in a micro-plate reader (CLARIOstar-Plus) set at 570/620 and 470/514 (λexcitation/λemission), respectively. MFSD2A-GFP lysate at 500 nM was incubated with 2 ml anti-FLAG M2 resin for 1 hour, fractionated in 8 equal parts placed on gravity columns and washed with 1 ml of wash buffer (50 mM HEPES pH 7.4, 200 mM NaCl, 5% (v/v) glycerol, 0.03% DDM, and 0.006% CHS). SYNC2-mCherry was added from a calibrated stock at 2 μM, and equilibrated for 1 hour. […] Eluted protein was transferred to a 96-well flat-bottom black plate for quantification of GFP and mCherry fluorescence. SYNC-mCherry fluorescence background was determined from samples with anti-FLAG resin that lack MFSD2A-GFP bound. SYNC2-mCherry subtracted fluorescence was fitted to a quadratic binding equation using Sigma Plot (Systat).
# [3] = biological target: T3, MFSD2ACO (thermostable consensus MFSD2A …); experiment: cryo-EM 2D classes and 3D reconstructions of the purified complex; 3.6 Å map of SYNC2SU-CO bound to MFSD2ACO
# Source text: For cryo-EM structural determination of MFSD2ACO-SYNC2CO complex, the inventors used SYNC2CO-C43S (SYNC2_CO-C43S) mutant to avoid detachment of surface and transmembrane subunits upon binding to MFSD2ACO. […] However, high flexibility within the complex precluded high-resolution 3D reconstructions. To overcome this problem, the inventors used a smaller box size in order to extract individual components, effectively increasing particle number and sample homogeneity, as it was recently shown in cryo-EM structure determination of human CD20 bound to divalent Fab fragments (Kumar et al., 2020). This approach enabled particle averaging over the three MFSD2ACO molecules in the complex, yielding a cryo-EM map at an overall 3.6 Å resolution of SYNC2_SU-CO bound to MFSD2ACO (FIG. 1F; Table 1; FIG. 7, 8). […] Trimeric SYNC2TM in the post-fusion state was not resolved in 3D cryo-EM reconstructions, likely due to lower number of particles, as well as alignment problems of micelles containing only three flexible transmembrane helices.
# MFSD2ACO-SYNC2_CO-C43S purified complex was applied to glow-discharged Au 200 mesh Quantifoil R1.2/1.3 holey carbon grids (Quantifoil), and vitrified using Vitrobot Mark IV (ThermoFisher). Typically, 4 μl of sample at 1.2-1.5 mg/ml were applied to the grids, and the Vitrobot chamber was maintained at 100% humidity and 4° C. […]
binder,measurement,setting,value
"SYNC2SU-CO (soluble thermostable consensus SYNC2 fragment with C43S), purified, C-terminal EPEA-tag (ligand) AYRHPDFPLLEKAQQLLQSTGSPYSTNSWLCTSSSTETPGTAYPASPREWTSIEAELHISYRWDPNLKGLMRPANSLLSTVKQDFPDIRQKPPIFGPIFTNINLMGIAPICVTAKRKNGTNVGTLPSTVCNVTFTVDPNQQTYQTYTHNQFRHQPRFPKPPNITFPQGTLLDKSTRFCQGRPSSCSTRNFWFRPADYNQCLQISNLSSTAEWVLLDQTRNSLFWENKTKGANQSQTPCVQVLAGMTIATSYLGISAVSEFFGTSLTPLFHFHISTCLKTQGAFYICGQSIHQCLPSNWTGTCTIGYVTPDIFIAPEPEA",half-maximal inhibitory concentration (IC50) of Na+-dependent LPCNBD transport in cells,[1],~200 nM
"SYNC2CO-C43S-mCherry (C-terminal mCherry fusion, detergent-solubilised lysate) (ligand, The methods say only 'SYNC2'; also called SYNC2-mCherry; SYNC-mCherry; not shown: C-terminal mCherry) AYRHPDFPLLEKAQQLLQSTGSPYSTNSWLCTSSSTETPGTAYPASPREWTSIEAELHISYRWDPNLKGLMRPANSLLSTVKQDFPDIRQKPPIFGPIFTNINLMGIAPICVTAKRKNGTNVGTLPSTVCNVTFTVDPNQQTYQTYTHNQFRHQPRFPKPPNITFPQGTLLDKSTRFCQGRPSSCSTRNFWFRPADYNQCLQISNLSSTAEWVLLDQTRNSLFWENKTKGANQSQTPCVQVLAGMTIATSYLGISAVSEFFGTSLTPLFHFHISTCLKTQGAFYICGQSIHQCLPSNWTGTCTIGYVTPDIFIAPGNLSLPIPIYGNSPLPRVRRAIHFIPLLAGLGILAGTGTGIAGITKASLTYSQLSKEIANNIDTMAKALTTMQEQIDSLAAVVLQNRRGLDMLTAAQGGICLALDEKCCFWVNQSGKVQDNIRQLLNQASSLRERATQGWLNWEGTWKWFSWVLPFIGPLVSLLLLLLFGPCLLNLITQFVSSRLQAIKLQTNLSAGRHPRNIQESPF",Kd,[2],~100 nM
"SYNC2CO-C43S (thermostable consensus SYNC2 mutant with additional mutation C43S), purified in detergent (ligand, N-glycans at N133, N146, N177, N220, N241, N247 and N312 (all seven predicted sites carry glycans in the structure), Trimeric full-length envelope protein; also called SYNC2 consensus C43S; SYNC2SU-CO (its surface subunit as resolved in the cryo-EM map)) AYRHPDFPLLEKAQQLLQSTGSPYSTNSWLCTSSSTETPGTAYPASPREWTSIEAELHISYRWDPNLKGLMRPANSLLSTVKQDFPDIRQKPPIFGPIFTNINLMGIAPICVTAKRKNGTNVGTLPSTVCNVTFTVDPNQQTYQTYTHNQFRHQPRFPKPPNITFPQGTLLDKSTRFCQGRPSSCSTRNFWFRPADYNQCLQISNLSSTAEWVLLDQTRNSLFWENKTKGANQSQTPCVQVLAGMTIATSYLGISAVSEFFGTSLTPLFHFHISTCLKTQGAFYICGQSIHQCLPSNWTGTCTIGYVTPDIFIAPGNLSLPIPIYGNSPLPRVRRAIHFIPLLAGLGILAGTGTGIAGITKASLTYSQLSKEIANNIDTMAKALTTMQEQIDSLAAVVLQNRRGLDMLTAAQGGICLALDEKCCFWVNQSGKVQDNIRQLLNQASSLRERATQGWLNWEGTWKWFSWVLPFIGPLVSLLLLLLFGPCLLNLITQFVSSRLQAIKLQTNLSAGRHPRNIQESPF",binding result,[3],binds

# Reference: patent US20260062455A1 (INSTITUT PASTEUR, published 2026)
